The supplement of paper PMC10567573

B1: GAGE1 (parent)
chain: RPRRYVQPPEMIGPMRPEQFSDEV

Variants of: B1
Assay: protein stability index of a GFP-peptide fusion (GPS, HEK-293T) (PSI 1-6); higher = more stable
Conditions: c terminus: a fixed tail appended
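Also: lentivirally expressed fusions sorted by FACS into six bins by GFP to DsRed ratio, PSI derived from sequencing read proportions per bin multiplied by bin number.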

Question: Which protein stability index does the source give for RPRRYVQPPEMIGPMRPEQFGDEV here?
Answer: 4.17

Question: With RPRRYVQPPEMIGPMRPEQFLDEV as the variant, how does the protein stability index read?
Answer: 3.48

Question: For RPRRYVQPPEMIGPMRPEQFYDEV, which protein stability index is on record?
Answer: 3.63

Question: With RPRRYVQPPEMIGPMRPEQFNDEV as the variant, how does the protein stability index read?
Answer: 3.87

Question: With RPRRYVQPPEMIGPMRPEQFVDEV as the variant, how does the protein stability index read?
Answer: 3.64

Question: Which protein stability index does the source give for RPRRYVLPPEMIGPMRPEQFSDEV here?
Answer: 3.85

Question: With RPRRYVEPPEMIGPMRPEQFSDEV as the variant, how does the protein stability index read?
Answer: 3.86

Question: Which protein stability index does the source give for RPRRYVWPPEMIGPMRPEQFSDEV here?
Answer: 3.73

Question: For RPRRYVDPPEMIGPMRPEQFSDEV, which protein stability index is on record?
Answer: 3.8

Question: With RPRRYVNPPEMIGPMRPEQFSDEV as the variant, how does the protein stability index read?
Answer: 3.64

Question: For RPRRYVIPPEMIGPMRPEQFSDEV, which protein stability index is on record?
Answer: 3.63

Question: With RPRRYVRPPEMIGPMRPEQFSDEV as the variant, how does the protein stability index read?
Answer: 3.29

Question: With RPRRYVGPPEMIGPMRPEQFSDEV as the variant, how does the protein stability index read?
Answer: 3.3

Question: With RPRRPVQPPEMIGPMRPEQFSDEV as the variant, how does the protein stability index read?
Answer: 4.32

Question: Which protein stability index does the source give for RPRRCVQPPEMIGPMRPEQFSDEV here?
Answer: 3.2

Question: For RPRREVQPPEMIGPMRPEQFSDEV, which protein stability index is on record?
Answer: 4.55

Question: For RPRRQVQPPEMIGPMRPEQFSDEV, which protein stability index is on record?
Answer: 4.2

Question: Which protein stability index does the source give for RPRRWVQPPEMIGPMRPEQFSDEV here?
Answer: 3.61

Question: For RPRRHVQPPEMIGPMRPEQFSDEV, which protein stability index is on record?
Answer: 3.81

Question: Which protein stability index does the source give for RPRRDVQPPEMIGPMRPEQFSDEV here?
Answer: 4.22

Question: Which protein stability index does the source give for RPRRYVQPPEMIGPMRPEHFSDEV here?
Answer: 3.62

Question: With RPRRYVQPPEMIGPMRPEAFSDEV as the variant, how does the protein stability index read?
Answer: 3.71

Question: For RPRRYVQPPEMIGPMRPEEFSDEV, which protein stability index is on record?
Answer: 3.51

Question: With RPRRYVQPPEMIGPMRPENFSDEV as the variant, how does the protein stability index read?
Answer: 3.79

Question: Which protein stability index does the source give for RPRRYVQQPEMIGPMRPEQFSDEV here?
Answer: 3.37

Question: Which protein stability index does the source give for RPRRYVQFPEMIGPMRPEQFSDEV here?
Answer: 3.41

Question: Which protein stability index does the source give for RPRRYVQNPEMIGPMRPEQFSDEV here?
Answer: 4.22

Question: With RPRRYVQTPEMIGPMRPEQFSDEV as the variant, how does the protein stability index read?
Answer: 4.12

Question: With RPRRYVQVPEMIGPMRPEQFSDEV as the variant, how does the protein stability index read?
Answer: 3.5

Question: Which protein stability index does the source give for RPRRYVQLPEMIGPMRPEQFSDEV here?
Answer: 3.31

Question: For RPRRYVQKPEMIGPMRPEQFSDEV, which protein stability index is on record?
Answer: 3.98

Question: With RPRRYVQHPEMIGPMRPEQFSDEV as the variant, how does the protein stability index read?
Answer: 4.18

Question: For RPRRYVQPPEMIGVMRPEQFSDEV, which protein stability index is on record?
Answer: 4.2

Question: With RPRRYVQPPEMIGSMRPEQFSDEV as the variant, how does the protein stability index read?
Answer: 4.13

Question: Which protein stability index does the source give for RPRRYVQPPEMIGDMRPEQFSDEV here?
Answer: 4.54

Question: For RPRRYVQPPEMIGLMRPEQFSDEV, which protein stability index is on record?
Answer: 3.48

Question: For RPRRYVQPPEMIGKMRPEQFSDEV, which protein stability index is on record?
Answer: 3.71

Question: Which protein stability index does the source give for RPRRYVQPPEMIGMMRPEQFSDEV here?
Answer: 3.6

Question: With RPRRYVQPPEMIGYMRPEQFSDEV as the variant, how does the protein stability index read?
Answer: 4.26

Question: Which protein stability index does the source give for RPRRYVQPPEMIGQMRPEQFSDEV here?
Answer: 4.23

Question: With RPRRYVQPPWMIGPMRPEQFSDEV as the variant, how does the protein stability index read?
Answer: 3.56

Question: With RPRRYVQPPDMIGPMRPEQFSDEV as the variant, how does the protein stability index read?
Answer: 4.51

Question: Which protein stability index does the source give for RPRRYVQPPFMIGPMRPEQFSDEV here?
Answer: 3.88

Question: For RPRRYVQPPLMIGPMRPEQFSDEV, which protein stability index is on record?
Answer: 3.39

Question: With RPRRYVQPPPMIGPMRPEQFSDEV as the variant, how does the protein stability index read?
Answer: 4.25

Question: For RPRRYVQPPVMIGPMRPEQFSDEV, which protein stability index is on record?
Answer: 3.99

Question: Which protein stability index does the source give for RPRRYVQPPRMIGPMRPEQFSDEV here?
Answer: 4.39

Question: With RPRRYVQPPNMIGPMRPEQFSDEV as the variant, how does the protein stability index read?
Answer: 3.97

Question: Which protein stability index does the source give for RPRRYVQPPEMIGPMHPEQFSDEV here?
Answer: 4.29

Question: Which protein stability index does the source give for RPRRYVQPPEMIGPMMPEQFSDEV here?
Answer: 3.88

Question: With RPRRYVQPPEMIGPMFPEQFSDEV as the variant, how does the protein stability index read?
Answer: 3.8

Question: Which protein stability index does the source give for RPRRYVQPPEMIGPMDPEQFSDEV here?
Answer: 3.84

Question: Which protein stability index does the source give for RPRRYVQPPEMIGPMPPEQFSDEV here?
Answer: 4.35

Question: For RPRRYVQPPEMIGPMTPEQFSDEV, which protein stability index is on record?
Answer: 3.8

Question: Which protein stability index does the source give for RPRRYVQPPEMIGPMQPEQFSDEV here?
Answer: 4.26

Question: For RPRRYVQPPEMIGPMAPEQFSDEV, which protein stability index is on record?
Answer: 4.31

Question: For RPRRYVQPPEMIGPMYPEQFSDEV, which protein stability index is on record?
Answer: 4.02

Question: For RPRRYVQPPEMIGPMEPEQFSDEV, which protein stability index is on record?
Answer: 4.3

Question: Which protein stability index does the source give for RPRRYVQPPEMIGPMRPSQFSDEV here?
Answer: 3.33

Question: With RPRRYVQPPEMIGPMRPHQFSDEV as the variant, how does the protein stability index read?
Answer: 3.46

Question: With RPRRYVQPPEMIGPMRPQQFSDEV as the variant, how does the protein stability index read?
Answer: 3.56

Question: With RPRRYVQPPEMIGPMRPVQFSDEV as the variant, how does the protein stability index read?
Answer: 3.32

Question: Which protein stability index does the source give for RPRRYVQPPEMIGPMRPCQFSDEV here?
Answer: 3.21

Question: For RPRRYVQPPEMIGPMRPFQFSDEV, which protein stability index is on record?
Answer: 3.34

Question: Which protein stability index does the source give for RPRRYVQPPEMIGPMRPGQFSDEV here?
Answer: 3.86

Question: For RPRRYVQPPEMIGPMRPNQFSDEV, which protein stability index is on record?
Answer: 3.66

Question: With RPRRYVQPPEMIGPMRPAQFSDEV as the variant, how does the protein stability index read?
Answer: 3.81

Question: For RPRRYVQPPEMIGPMRPRQFSDEV, which protein stability index is on record?
Answer: 3.57

Question: For RPRRYVQPPEMIGPMRPDQFSDEV, which protein stability index is on record?
Answer: 3.48

Question: For RPRRYVQPPEMIGPMRPPQFSDEV, which protein stability index is on record?
Answer: 3.6

Question: Which protein stability index does the source give for RPRRYVQPPEMIGPMRFEQFSDEV here?
Answer: 3.58

Question: For RPRRYVQPPEMIGPMRDEQFSDEV, which protein stability index is on record?
Answer: 4.43

Question: With RPRRYVQPPEMIGPMRVEQFSDEV as the variant, how does the protein stability index read?
Answer: 4.43

Question: For RPRRYVQPPEMIGPMRCEQFSDEV, which protein stability index is on record?
Answer: 3.79

Question: For RPRRYVQPPEMIGPMREEQFSDEV, which protein stability index is on record?
Answer: 4.33

Question: For RPRRYVQPPEMIGPMRTEQFSDEV, which protein stability index is on record?
Answer: 3.85

Question: For RPRRYVQPPEMIGPMRNEQFSDEV, which protein stability index is on record?
Answer: 4.09

Question: For RPRRYVQPPEMIGPMRPEQFSDAV, which protein stability index is on record?
Answer: 3.59

Question: Which protein stability index does the source give for RPRRYVQPPEMIGPMRPEQFSDSV here?
Answer: 3.68

Question: For RPRRYVQPPEMIGPMRPEQFSDLV, which protein stability index is on record?
Answer: 3.08

Question: Which protein stability index does the source give for RPRRYVQPPEMIGPMRPEQFSDFV here?
Answer: 2.98

Question: With RPRRYVQPPEMIGPMRPEQFSDWV as the variant, how does the protein stability index read?
Answer: 2.95

Question: Which protein stability index does the source give for RPRRYVQPPEMIGPMRPEQFSDGV here?
Answer: 3.46

Question: For RPRRYVQPPEMIGPMRPEQFSDHV, which protein stability index is on record?
Answer: 3.6

Question: Which protein stability index does the source give for RPRRYVQPPEMIGPMRPEQFSDNV here?
Answer: 3.42

Question: With RPRRYVQPPEMFGPMRPEQFSDEV as the variant, how does the protein stability index read?
Answer: 3.99

Question: Which protein stability index does the source give for RPRRYVQPPEMNGPMRPEQFSDEV here?
Answer: 4.71

Question: Which protein stability index does the source give for RPRRYVQPPEMTGPMRPEQFSDEV here?
Answer: 4.53

Question: For RPRRYVQPPEMEGPMRPEQFSDEV, which protein stability index is on record?
Answer: 4.57

Question: With RPRRYVQPPEMVGPMRPEQFSDEV as the variant, how does the protein stability index read?
Answer: 4.77

Question: Which protein stability index does the source give for RPRRYVQPPEMQGPMRPEQFSDEV here?
Answer: 4.62

Question: For RPRRYVQPPEMKGPMRPEQFSDEV, which protein stability index is on record?
Answer: 4.62

Question: Which protein stability index does the source give for RPRRYVQPPEMDGPMRPEQFSDEV here?
Answer: 4.72

Question: For RPRRYVQPPEMIGPVRPEQFSDEV, which protein stability index is on record?
Answer: 4.49
